The results in this text go back to patent US12479928B2, “Anti-cancer peptide” (Minerva Biotechnologies Corporation, priority 2014, dated 2025).

For one experiment, the system named is T47D breast cancer cells. The experiment in a line: Induced transition of breast cancer cells to a more metastatic state, RT-PCR of metastatic markers. Format: cell-based, human. As for the experimental part:
In one particular experiment, T47D human breast cancer cells were cultured in standard RPMI media for 14 days with media changes every 48 hours and passed by trypsinization when approximately 75% confluent. The cells were then plated into 6-well plates and cultured in minimal stem cell media (see Example 1) that was supplemented with 4 nM NME7-AB. Media was changed every 48 hours. By about Day 4, some cells become detached from the surface and float. Media is carefully changed so as to retain the “floaters” as these are the cells that have the highest metastatic potential as evidence by RT-PCR measurement of metastatic markers. On Day 7 or 8, the floaters are harvested and counted. Samples are retained for RT-PCR measurement.
We have shown that NME7-AB promotes cancerous growth and causes cancer cells to accelerate to the highly metastatic cancer stem cell (CSC) state also called tumor initiating cells (TIC). Therefore, we conclude that NME7-X1 and an NME7 cleavage product that removes the DM10 domain also promote cancerous growth and causes cancer cells to accelerate to the highly metastatic cancer stem cell (CSC) state also called tumor initiating cells (TIC). In one example, NME7-AB was added to cancer cells in a serum-free media and in the absence of any other growth factors or cytokines. […] After 10 days cells were collected and analyzed by RT-PCR for expression of molecular markers of CSCs which were elevated by 10-200-times (FIGS. 11, 12). […]
A rho I kinase inhibitor, ROCi, ROCKi or Ri, was added to prevent the transformed cells from floating off the plate. Expression levels of various metastatic markers as well as pluripotent stem cell markers were measured for the parent cells and for the NME7-AB cultured cells.
T47D human breast cancer cells were cultured in standard RPMI media for 14 days with media changes every 48 hours and passed by trypsinization when approximately 75% confluent. […] On Day 7 or 8, the floaters are harvested and counted. […]

The subject of experiment [1] is SK-OV3 ovarian cancer cell line. As to the kind of experiment: RT-PCR of metastatic markers after culture in NME7-AB, SK-OV3. Format: cell-based, human. The conditions noted are these: 72 or 144 hours. An excerpt:
FIGS. 37A-37C show graphs of RT-PCR measurements of metastatic markers in cancer cells after being cultured in a serum-free media containing NME7-AB compared to the standard media.

For experiment [2], the system named is T47D human breast cancer cells xenografted. As to the kind of experiment: Xenograft of NME7-AB cultured floater cells in nu/nu mice with daily NME7-AB injection. Format: in vivo, female nu/nu athymic mice. Here is the method: The freshly harvested floater metastatic cells were xenografted into the flank of female nu/nu athymic mice that have been implanted with 90-day slow release estrogen pellets. Floater cells were xenografted with 10,000, 1,000, 100 or 50 cells each. Half of the mice in each group of 6 were also injected daily with 32 nM NME7-AB near the original implantation site. The parent T47D cells that were cultured in RPMI media without NME7-AB were also implanted into mice at 6 million, 10,000 or 100 as controls. Mice implanted with the NME7-induced floater cells developed tumors even when as few as 50 cells were implanted. Mice that were implanted with the floater cells and that received daily injections of NME7-AB also developed remote tumors or remote metastases in various organs (FIG. 20-25). 11 out of the 12 mice, or 92%, that were injected with human NME7-AB after implantation of the NME7-AB cultured cancer cells developed tumors at the injection site. Only 7 out of the 12 mice, or 58%, that were not injected with human NME7-AB after implantation developed tumors. […] None of the mice that were not injected with NME7-AB developed multiple, visible tumors.
The freshly harvested floater metastatic cells are xenografted into the flank of female nu/nu athymic mice that have been implanted with 90-day slow release estrogen pellets. Floater cells were xenografted as 10,000, 1,000, 100 or 50 cells each. Half of the mice in each group of 6 were also injected daily with 32 nM NME7-AB near the original implantation site. The parent T47D cells that were cultured in RPMI media without NME7-AB were also implanted into mice as 6 million, 10,000 or 100 as controls. Mice implanted with the NME7-induced floater cells developed tumors even when as few as 50 cells were implanted. Mice that were implanted with the floater cells and that received daily injections of NME7-AB also developed remote tumors or remote metastases in various organs (FIG. 20-25). 11 out of the 12 mice, or 92%, that were injected with human NME7-AB after implantation of the NME7-AB cultured cancer cells, developed tumors at the injection site. Only 7 out of the 12 mice, or 58%, that were not injected with human NME7-AB after implantation developed tumors. 9 out of the 11 mice, or 82%, that got tumors and were injected with human NME7-AB developed multiple tumors remote from the injection site. None of the mice that were not injected with NME7-AB developed multiple, visible tumors.

“And” between values parts separate entries of the source, which are not always exact repeats. Equal values may be shown once.

B1: NME7-AB: recombinant human NME7 devoid of the DM10 domain, NDPK A and B domains, about 33 kDa monomer (protein)
chain: MEKTLALIKPDAISKAGEIIEIINKAGFTITKLKMMMLSRKEALDFHVDHQSRPFFNELIQFITTGPIIAMEILRDDAICEWKRLLGPANSGVARTDASESIRALFGTDGIRNAAHGPDSFASAAREMELFFPSSGGCGPANTAKFTNCTCCIVKPHAVSEGLLGKILMAIRDAGFEISAMQMFNMDRVNVEEFYEVYKGVVTEYHDMVTEMYSGPCVAMEIQQNNATKTFREFCGPADPEIARHLRPGTLRAIFGKTKIQNAVHCTDLPEDGLLEVQYFFKILDN
With B1, in the experiment on T47D breast cancer cells (4 nM NME7-AB in minimal stem cell media, floaters Day 7 or 8), the CXCR4 up-regulation is 40-200 times. Further, the “elevation of molecular markers of CSCs” value with T47D breast cancer cells (16 nM NME7-AB, after 10 days) is 10-200 times. Further, the “increase in expression of molecular markers such as CXCR4” value in the experiment with T47D breast cancer cells (serum-free media, within 7-10 days) is recorded as “more than 100 fold”. Also, the “metastatic marker expression after culture in NME7-AB” value in experiment [1] is “increase expression of metastatic markers CHD1, SOX2 and NME7-X1”. Moreover, in experiment [2] (cells pre-cultured in NME7-AB), the “number of implanted NME7-induced floater cells that developed tumors” value is ≤ 50 cells. Moreover, the “mice that developed tumors at the injection site” value in experiment [2] (injected daily with 32 nM NME7-AB, 11 out of 12 mice) is given as 92%. The “mice that developed multiple tumors remote from the injection site” value in experiment [2] (injected daily with NME7-AB, 9 out of 11 mice with tumors) was 82% and 80%. For the same molecule, the “engraftment rate of cancer cells cultured in NME7-AB” value in experiment [2] (xenografted into test animals) is recorded as “over 90%”.
